Where a chain is given by its changes, count along the chain named. Names and notes keep the numbering of the source.
Tested on: HP1a (homodimerization)
Assay: Equilibrium analytical ultracentrifugation, HP1a self-association
Conditions: equilibrium AUC

B1: W200A: HP1a-CSD point mutant W200A (protein)
chain: EQDTIPVSGSTGFDRGLEAEKILGASDNNGRLTFLIQFKGVDQAEMVPSSVANEKIPRMVIHFYEERLSAYSDNED
modifications: left off: His6 (…), N-terminal, kept | two lysines for solubility, C-terminal, kept
- weakening of the dimerization (dissociation) constant relative to wild-type CSD: two-fold weakening

B2: S199ES202E: HP1a-CSD phosphorylation mimic, S199E and S202E double mutant (protein)
chain: B1 chain with S69E, A70W, S72E
modifications: left off: His6 (…), N-terminal, kept | two lysines for solubility, C-terminal, kept
- weakening of the dimerization (dissociation) constant relative to wild-type CSD: 6 fold

Reference: publication PMC3154745 (Chembiochem : a European journal of chemical biology, 2011)
